Test results as given in patent publication US20140087995A1 (published 2014).
Numbered stars: 1 amine (or outer) side, 2 acyl side, 3 side chain; on linkers, the order of the positions; unused ones are H or OH. Bridge positions count the residues as written; N and C are the ends. Side chains are listed from the residue outwards. Ends that are not written are not given here. * marks the point of attachment. C20 diacid = O=C(O)CCCCCCCCCCCCCCCCCCC(=O)*; γGlu = O=C(O)[C@H](CCC(=O)[*:2])N[*:1]

T1: human amylin 3(a) receptor (human calcitonin receptor co-expressed with RAMP-3) (human, UniProt P30988 25-474; O60896 24-148, limits assumed)
T1 sequence (looked up) 1: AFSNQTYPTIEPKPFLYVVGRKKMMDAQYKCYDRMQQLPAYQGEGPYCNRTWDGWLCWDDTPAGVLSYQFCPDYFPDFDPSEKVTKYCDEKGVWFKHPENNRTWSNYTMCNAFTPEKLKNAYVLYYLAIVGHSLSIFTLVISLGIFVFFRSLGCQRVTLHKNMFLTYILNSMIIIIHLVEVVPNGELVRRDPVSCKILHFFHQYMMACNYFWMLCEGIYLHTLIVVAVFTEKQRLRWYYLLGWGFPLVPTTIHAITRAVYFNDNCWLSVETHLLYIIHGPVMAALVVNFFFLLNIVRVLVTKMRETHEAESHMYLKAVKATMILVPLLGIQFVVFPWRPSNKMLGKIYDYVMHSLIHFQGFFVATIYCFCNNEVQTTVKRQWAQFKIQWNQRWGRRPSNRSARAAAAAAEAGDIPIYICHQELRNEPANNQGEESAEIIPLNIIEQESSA
T1 sequence (looked up) 2: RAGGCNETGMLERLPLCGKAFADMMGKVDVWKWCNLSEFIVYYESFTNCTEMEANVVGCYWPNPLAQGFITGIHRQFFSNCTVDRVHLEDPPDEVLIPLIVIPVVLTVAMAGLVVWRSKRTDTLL

T2: human calcitonin receptor (human, UniProt P30988 25-474)
T2 sequence (looked up): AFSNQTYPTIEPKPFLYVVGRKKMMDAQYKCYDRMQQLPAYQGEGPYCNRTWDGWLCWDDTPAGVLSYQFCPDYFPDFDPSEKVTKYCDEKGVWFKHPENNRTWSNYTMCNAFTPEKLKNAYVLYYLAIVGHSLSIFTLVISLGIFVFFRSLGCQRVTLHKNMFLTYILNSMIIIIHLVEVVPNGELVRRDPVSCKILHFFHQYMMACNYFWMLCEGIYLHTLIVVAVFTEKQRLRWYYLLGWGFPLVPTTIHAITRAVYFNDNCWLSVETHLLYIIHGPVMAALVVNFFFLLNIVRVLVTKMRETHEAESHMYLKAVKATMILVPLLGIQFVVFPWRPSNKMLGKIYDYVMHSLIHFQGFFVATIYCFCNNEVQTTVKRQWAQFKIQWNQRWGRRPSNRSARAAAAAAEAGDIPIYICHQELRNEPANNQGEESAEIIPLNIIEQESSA


Legend:
[1] = biological target: T1, human amylin 3(a) receptor (human …); experiment: cell-based or functional assay
[2] = biological target: T2, human calcitonin receptor; experiment: cell-based or functional assay
[3] = biological target: T1, human amylin 3(a) receptor (human …); experiment: SPA competition binding, membranes of Amylin 3(a)/CRE-luc BHK cells, displacement of 125I-rat amylin (Assay (V))
Method: The binding assay was performed using scintillation proximity assay (SPA) beads (RPNQ0001) from PerkinElmer and cell membranes from the Amylin 3(a)/CRE-luc cells (as described in Assay (II)) were used. Membranes were prepared in the following way; the cells were rinsed with PBS and incubated with Versene for approximately 5 min before harvesting. The cells were flushed with PBS and the cell-suspension was centrifuged for 5 min at 1000 rpm. Cells were homogenized (ultrathurrax) in a buffer containing 20 mM Na-HEPES and 10 mM EDTA (pH 7.4) and centrifuged at 20.000 rpm for 15 min. The resulting pellet was resuspended, homogenized and centrifuged (20.000 rpm, 15 min) in a buffer containing 20 mM Na-HEPES and 0.1 mM EDTA (pH 7.4, buffer 2). The resulting pellet was resuspended in buffer 2 and protein concentration was measured (BCA protein Assay, Pierce). The homogenate was kept cold during the whole procedure. The membranes were kept at −80° C. until use. The assay was performed in a 384 well Optiplate (PerkinElmer) in a total volume of 40 ul. Membranes were mixed with SPA beads. Final concentration of membranes 35 ng/μL final and SPA beads was 0.05 mg/well. Test-compounds were dissolved in DMSO and further diluted in assay buffer (50 mM Hepes, pH 7.4, 1 mM CaCl2, 5 mM MgCl₂, 0.1% OA and 0.02% Tween20). […] The final mixture was incubated with shaking at 400 rpm for 120 min at 25° C. prior to centrifugation (1500 rpm, 10 min). Samples were analyzed on TopCounter™ (Packard). The IC₅₀ was calculated using (one site binding competition analysis) GraphPad Prism5 as a measure of receptor affinity.

Binder | hAmylin-R funct. EC50 [1] | Ratio hCT/hAmylin funct. [2] | hCTR funct. EC50 [2] | IC50 [3]
K([γGlu-C20 diacid])CNTATCATQRLAEFLRHSSPNFGAIPSSTNVGHETY-NH2 (disulfide 2-7; N-terminus assumed; SMILES CC[C@H](C)[C@H](NC(=O)[C@H](C)NC(=O)CNC(=O)[C@H](Cc1ccccc1)NC(=O)[C@H](CC(N)=O)NC(=O)[C@@H]1CCCN1C(=O)[C@H](CO)NC(=O)[C@H](CO)NC(=O)[C@H](Cc1c[nH]cn1)NC(=O)[C@H](CCCNC(=N)N)NC(=O)[C@H](CC(C)C)NC(=O)[C@H](Cc1ccccc1)NC(=O)[C@H](CCC(=O)O)NC(=O)[C@H](C)NC(=O)[C@H](CC(C)C)NC(=O)[C@H](CCCNC(=N)N)NC(=O)[C@H](CCC(N)=O)NC(=O)[C@@H](NC(=O)[C@H](C)NC(=O)[C@@H]1CSSC[C@H](NC(=O)[C@@H](N)CCCCNC(=O)CC[C@H](NC(=O)CCCCCCCCCCCCCCCCCCC(=O)O)C(=O)O)C(=O)N[C@@H](CC(N)=O)C(=O)N[C@@H]([C@@H](C)O)C(=O)N[C@@H](C)C(=O)N[C@@H]([C@@H](C)O)C(=O)N1)[C@@H](C)O)C(=O)N1CCC[C@H]1C(=O)N[C@@H](CO)C(=O)N[C@@H](CO)C(=O)N[C@H](C(=O)N[C@@H](CC(N)=O)C(=O)N[C@H](C(=O)NCC(=O)N[C@@H](Cc1c[nH]cn1)C(=O)N[C@@H](CCC(=O)O)C(=O)N[C@H](C(=O)N[C@@H](Cc1ccc(O)cc1)C(N)=O)[C@@H](C)O)C(C)C)[C@@H](C)O, also called compound 107) | 0.405 nM | 6.3 | 2.54 nM | 0.387 nM
K([γGlu-C20 diacid])CNTATCATQRLAHFLRHSSPNFGAIPSSTNVGPNTP-NH2 (disulfide 2-7; N-terminus assumed; SMILES CC[C@H](C)[C@H](NC(=O)[C@H](C)NC(=O)CNC(=O)[C@H](Cc1ccccc1)NC(=O)[C@H](CC(N)=O)NC(=O)[C@@H]1CCCN1C(=O)[C@H](CO)NC(=O)[C@H](CO)NC(=O)[C@H](Cc1c[nH]cn1)NC(=O)[C@H](CCCNC(=N)N)NC(=O)[C@H](CC(C)C)NC(=O)[C@H](Cc1ccccc1)NC(=O)[C@H](Cc1c[nH]cn1)NC(=O)[C@H](C)NC(=O)[C@H](CC(C)C)NC(=O)[C@H](CCCNC(=N)N)NC(=O)[C@H](CCC(N)=O)NC(=O)[C@@H](NC(=O)[C@H](C)NC(=O)[C@@H]1CSSC[C@H](NC(=O)[C@@H](N)CCCCNC(=O)CC[C@H](NC(=O)CCCCCCCCCCCCCCCCCCC(=O)O)C(=O)O)C(=O)N[C@@H](CC(N)=O)C(=O)N[C@@H]([C@@H](C)O)C(=O)N[C@@H](C)C(=O)N[C@@H]([C@@H](C)O)C(=O)N1)[C@@H](C)O)C(=O)N1CCC[C@H]1C(=O)N[C@@H](CO)C(=O)N[C@@H](CO)C(=O)N[C@H](C(=O)N[C@@H](CC(N)=O)C(=O)N[C@H](C(=O)NCC(=O)N1CCC[C@H]1C(=O)N[C@@H](CC(N)=O)C(=O)N[C@H](C(=O)N1CCC[C@H]1C(N)=O)[C@@H](C)O)C(C)C)[C@@H](C)O) | 0.052 nM | 0.8 | 0.04 nM | 0.131 nM
K([γGlu-C20 diacid])CNTATCATQRLAEFLRHSSPNFGAIPSSTNVGPNTP-NH2 (disulfide 2-7; N-terminus assumed; SMILES CC[C@H](C)[C@H](NC(=O)[C@H](C)NC(=O)CNC(=O)[C@H](Cc1ccccc1)NC(=O)[C@H](CC(N)=O)NC(=O)[C@@H]1CCCN1C(=O)[C@H](CO)NC(=O)[C@H](CO)NC(=O)[C@H](Cc1c[nH]cn1)NC(=O)[C@H](CCCNC(=N)N)NC(=O)[C@H](CC(C)C)NC(=O)[C@H](Cc1ccccc1)NC(=O)[C@H](CCC(=O)O)NC(=O)[C@H](C)NC(=O)[C@H](CC(C)C)NC(=O)[C@H](CCCNC(=N)N)NC(=O)[C@H](CCC(N)=O)NC(=O)[C@@H](NC(=O)[C@H](C)NC(=O)[C@@H]1CSSC[C@H](NC(=O)[C@@H](N)CCCCNC(=O)CC[C@H](NC(=O)CCCCCCCCCCCCCCCCCCC(=O)O)C(=O)O)C(=O)N[C@@H](CC(N)=O)C(=O)N[C@@H]([C@@H](C)O)C(=O)N[C@@H](C)C(=O)N[C@@H]([C@@H](C)O)C(=O)N1)[C@@H](C)O)C(=O)N1CCC[C@H]1C(=O)N[C@@H](CO)C(=O)N[C@@H](CO)C(=O)N[C@H](C(=O)N[C@@H](CC(N)=O)C(=O)N[C@H](C(=O)NCC(=O)N1CCC[C@H]1C(=O)N[C@@H](CC(N)=O)C(=O)N[C@H](C(=O)N1CCC[C@H]1C(N)=O)[C@@H](C)O)C(C)C)[C@@H](C)O) | 0.105 nM | 0.9 | 0.09 nM | 0.214 nM

Now from value to binder:

hAmylin-R funct. EC50 [1] | Ratio hCT/hAmylin funct. [2] | hCTR funct. EC50 [2] | IC50 [3] | Binder
0.225 nM | 10.5 | 2.36 nM | 0.121 nM | K([γGlu-γGlu-C20 diacid])CNTATCATQRLAEFLRHSSPNFGAIPSSTNVGPETY-NH2 (disulfide 2-7; N-terminus assumed; SMILES CC[C@H](C)[C@H](NC(=O)[C@H](C)NC(=O)CNC(=O)[C@H](Cc1ccccc1)NC(=O)[C@H](CC(N)=O)NC(=O)[C@@H]1CCCN1C(=O)[C@H](CO)NC(=O)[C@H](CO)NC(=O)[C@H](Cc1c[nH]cn1)NC(=O)[C@H](CCCNC(=N)N)NC(=O)[C@H](CC(C)C)NC(=O)[C@H](Cc1ccccc1)NC(=O)[C@H](CCC(=O)O)NC(=O)[C@H](C)NC(=O)[C@H](CC(C)C)NC(=O)[C@H](CCCNC(=N)N)NC(=O)[C@H](CCC(N)=O)NC(=O)[C@@H](NC(=O)[C@H](C)NC(=O)[C@@H]1CSSC[C@H](NC(=O)[C@@H](N)CCCCNC(=O)CC[C@H](NC(=O)CC[C@H](NC(=O)CCCCCCCCCCCCCCCCCCC(=O)O)C(=O)O)C(=O)O)C(=O)N[C@@H](CC(N)=O)C(=O)N[C@@H]([C@@H](C)O)C(=O)N[C@@H](C)C(=O)N[C@@H]([C@@H](C)O)C(=O)N1)[C@@H](C)O)C(=O)N1CCC[C@H]1C(=O)N[C@@H](CO)C(=O)N[C@@H](CO)C(=O)N[C@H](C(=O)N[C@@H](CC(N)=O)C(=O)N[C@H](C(=O)NCC(=O)N1CCC[C@H]1C(=O)N[C@@H](CCC(=O)O)C(=O)N[C@H](C(=O)N[C@@H](Cc1ccc(O)cc1)C(N)=O)[C@@H](C)O)C(C)C)[C@@H](C)O)
0.703 nM | 10.6 | 7.43 nM | 0.957 nM | K([γGlu-γGlu-C20 diacid])CNTATCATQRLAEFLRHSSPNFGAIPSSTNVGRETY-NH2 (disulfide 2-7; N-terminus assumed; SMILES CC[C@H](C)[C@H](NC(=O)[C@H](C)NC(=O)CNC(=O)[C@H](Cc1ccccc1)NC(=O)[C@H](CC(N)=O)NC(=O)[C@@H]1CCCN1C(=O)[C@H](CO)NC(=O)[C@H](CO)NC(=O)[C@H](Cc1c[nH]cn1)NC(=O)[C@H](CCCNC(=N)N)NC(=O)[C@H](CC(C)C)NC(=O)[C@H](Cc1ccccc1)NC(=O)[C@H](CCC(=O)O)NC(=O)[C@H](C)NC(=O)[C@H](CC(C)C)NC(=O)[C@H](CCCNC(=N)N)NC(=O)[C@H](CCC(N)=O)NC(=O)[C@@H](NC(=O)[C@H](C)NC(=O)[C@@H]1CSSC[C@H](NC(=O)[C@@H](N)CCCCNC(=O)CC[C@H](NC(=O)CC[C@H](NC(=O)CCCCCCCCCCCCCCCCCCC(=O)O)C(=O)O)C(=O)O)C(=O)N[C@@H](CC(N)=O)C(=O)N[C@@H]([C@@H](C)O)C(=O)N[C@@H](C)C(=O)N[C@@H]([C@@H](C)O)C(=O)N1)[C@@H](C)O)C(=O)N1CCC[C@H]1C(=O)N[C@@H](CO)C(=O)N[C@@H](CO)C(=O)N[C@H](C(=O)N[C@@H](CC(N)=O)C(=O)N[C@H](C(=O)NCC(=O)N[C@@H](CCCNC(=N)N)C(=O)N[C@@H](CCC(=O)O)C(=O)N[C@H](C(=O)N[C@@H](Cc1ccc(O)cc1)C(N)=O)[C@@H](C)O)C(C)C)[C@@H](C)O)
